# Patent US20240279357A1 (THERINI BIO, published 2024)
# T1: P2 peptide comprising SEQ ID NO: 31 (human fibrin γ377-395) (human)
# T1 construct: Bought (CPC Scientific 920712); also called human P2 peptide
# T1 peptide: YSMKKTTMKIIPFNRLTIG
# Biological target: plasminogen-depleted human Fibrinogen (EMD/Calbiochem) (human) (UniProt P02671)
# Assay: ELISA on plate-coated human fibrinogen, antibody titrated, A450
# plasminogen-depleted human Fibrinogen (EMD/Calbiochem) (human), sequence (P02671 20-629 limits assumed, chain 1 of 3): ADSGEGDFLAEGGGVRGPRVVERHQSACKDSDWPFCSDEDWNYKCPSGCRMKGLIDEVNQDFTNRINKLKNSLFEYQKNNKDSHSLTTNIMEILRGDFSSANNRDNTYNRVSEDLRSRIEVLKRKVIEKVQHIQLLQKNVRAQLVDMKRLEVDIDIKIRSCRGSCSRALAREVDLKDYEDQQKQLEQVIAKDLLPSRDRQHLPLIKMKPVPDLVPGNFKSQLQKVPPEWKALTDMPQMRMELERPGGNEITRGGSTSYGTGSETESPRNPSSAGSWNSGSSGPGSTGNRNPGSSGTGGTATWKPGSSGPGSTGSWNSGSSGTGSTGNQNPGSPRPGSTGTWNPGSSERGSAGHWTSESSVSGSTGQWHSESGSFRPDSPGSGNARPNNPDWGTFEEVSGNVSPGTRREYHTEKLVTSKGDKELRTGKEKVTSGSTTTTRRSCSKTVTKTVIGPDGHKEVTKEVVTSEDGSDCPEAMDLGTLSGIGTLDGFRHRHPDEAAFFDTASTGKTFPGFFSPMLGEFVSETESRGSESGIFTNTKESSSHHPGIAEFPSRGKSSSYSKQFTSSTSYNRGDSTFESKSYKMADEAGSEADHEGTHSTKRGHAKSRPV
# plasminogen-depleted human Fibrinogen (EMD/Calbiochem) (human), sequence (P02675 31-491 limits assumed, chain 2 of 3, further chain): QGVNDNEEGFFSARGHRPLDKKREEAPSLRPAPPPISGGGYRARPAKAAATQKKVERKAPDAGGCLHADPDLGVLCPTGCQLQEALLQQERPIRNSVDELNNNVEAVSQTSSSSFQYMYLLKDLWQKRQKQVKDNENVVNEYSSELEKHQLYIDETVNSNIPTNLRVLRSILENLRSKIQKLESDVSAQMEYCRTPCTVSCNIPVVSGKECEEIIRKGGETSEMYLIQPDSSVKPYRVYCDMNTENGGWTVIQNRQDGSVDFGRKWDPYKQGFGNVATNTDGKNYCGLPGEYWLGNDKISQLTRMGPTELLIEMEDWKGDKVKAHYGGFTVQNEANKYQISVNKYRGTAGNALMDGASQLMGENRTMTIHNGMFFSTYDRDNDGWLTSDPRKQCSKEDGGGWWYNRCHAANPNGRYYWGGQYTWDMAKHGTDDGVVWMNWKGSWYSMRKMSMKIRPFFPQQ
# plasminogen-depleted human Fibrinogen (EMD/Calbiochem) (human), sequence (P02679 other isoform, or with tags, fused parts or gaps limits assumed, chain 3 of 3, further chain): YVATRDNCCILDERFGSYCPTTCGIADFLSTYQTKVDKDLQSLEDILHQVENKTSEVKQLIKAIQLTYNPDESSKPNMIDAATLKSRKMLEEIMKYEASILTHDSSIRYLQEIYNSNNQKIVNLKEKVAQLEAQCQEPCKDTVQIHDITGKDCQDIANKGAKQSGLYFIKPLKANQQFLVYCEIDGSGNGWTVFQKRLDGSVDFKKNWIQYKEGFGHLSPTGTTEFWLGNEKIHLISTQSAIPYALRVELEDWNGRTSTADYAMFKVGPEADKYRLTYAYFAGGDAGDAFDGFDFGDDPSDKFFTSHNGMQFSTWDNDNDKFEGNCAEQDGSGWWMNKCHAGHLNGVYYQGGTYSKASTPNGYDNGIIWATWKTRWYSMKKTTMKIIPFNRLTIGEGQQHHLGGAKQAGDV
row,Molecule,EC50
1,mouse IgG2b isotype control (antibody),1.84 µM

# Biological target: T1, P2 peptide comprising SEQ ID NO: 31 …
# Assay: SPR (Biacore) single cycle, steady state affinity; IgG from HEK supernatant captured, γ377-395 peptide analyte
Molecule,Kd,Relative KD
"VH4 C102T/VK2 (antibody, IgG1, V domains shown, IgG1, tested from HEK supernatant) VH: QVQLVQSGAEVKKPGSSVKVSCKASGYTFTSYWIHWVRQAPGQGLEWIGLIDPSDSYTNYNQKFRGRVTITVDTSTSTAYMELSSLRSEDTAVYYCASSDPTGTWGQGTTVTVSS VL: DIVMTQAAFSNPVTPGTPASISCRSSKSLLHSSGITYLSWYLQKPGQSPQLLIYQMSNLASGVPDRFSSSGSGTDFTLKISRVEAEDVGVYYCAQNLELPLTFGQGTKLEIK",49 µM,1.05 fold against VH4/VK2
"VH5 C102V/VK2 (antibody, IgG1, V domains shown, IgG1, tested from HEK supernatant; also called VH5-102V) VH: QVQLVQSGAEVKKPGSSVKVSCKASGYTFTSYWIHWVRQAPGQGLEWIGLIDPSDSYTNYNQKFRGRVTITRDTSTSTAYMELSSLRSEDTAVYYCASSDPTGVWGQGTTVTVSS VL: DIVMTQAAFSNPVTPGTPASISCRSSKSLLHSSGITYLSWYLQKPGQSPQLLIYQMSNLASGVPDRFSSSGSGTDFTLKISRVEAEDVGVYYCAQNLELPLTFGQGTKLEIK",44 µM,0.56 fold against VH5/VK2
"VH5 C102S/VK2 (antibody, IgG1, V domains shown, IgG1, tested from HEK supernatant) VH: QVQLVQSGAEVKKPGSSVKVSCKASGYTFTSYWIHWVRQAPGQGLEWIGLIDPSDSYTNYNQKFRGRVTITRDTSTSTAYMELSSLRSEDTAVYYCASSDPTGSWGQGTTVTVSS VL: DIVMTQAAFSNPVTPGTPASISCRSSKSLLHSSGITYLSWYLQKPGQSPQLLIYQMSNLASGVPDRFSSSGSGTDFTLKISRVEAEDVGVYYCAQNLELPLTFGQGTKLEIK",110 µM,1.33 fold against VH5/VK2
"VH5 C102L/VK2 (antibody, IgG1, V domains shown, IgG1, tested from HEK supernatant; also called VH5-102L) VH: QVQLVQSGAEVKKPGSSVKVSCKASGYTFTSYWIHWVRQAPGQGLEWIGLIDPSDSYTNYNQKFRGRVTITRDTSTSTAYMELSSLRSEDTAVYYCASSDPTGLWGQGTTVTVSS VL: DIVMTQAAFSNPVTPGTPASISCRSSKSLLHSSGITYLSWYLQKPGQSPQLLIYQMSNLASGVPDRFSSSGSGTDFTLKISRVEAEDVGVYYCAQNLELPLTFGQGTKLEIK",140 µM,1.77 fold against VH5/VK2
"VH4 C102V/VK2 (antibody, IgG1, V domains shown, IgG1, tested from HEK supernatant; also called VH4-102V) VH: QVQLVQSGAEVKKPGSSVKVSCKASGYTFTSYWIHWVRQAPGQGLEWIGLIDPSDSYTNYNQKFRGRVTITVDTSTSTAYMELSSLRSEDTAVYYCASSDPTGVWGQGTTVTVSS VL: DIVMTQAAFSNPVTPGTPASISCRSSKSLLHSSGITYLSWYLQKPGQSPQLLIYQMSNLASGVPDRFSSSGSGTDFTLKISRVEAEDVGVYYCAQNLELPLTFGQGTKLEIK",33 µM,0.7 fold against VH4/VK2
"VH5 C102A/VK2 (antibody, IgG1, V domains shown, IgG1, tested from HEK supernatant) VH: QVQLVQSGAEVKKPGSSVKVSCKASGYTFTSYWIHWVRQAPGQGLEWIGLIDPSDSYTNYNQKFRGRVTITRDTSTSTAYMELSSLRSEDTAVYYCASSDPTGAWGQGTTVTVSS VL: DIVMTQAAFSNPVTPGTPASISCRSSKSLLHSSGITYLSWYLQKPGQSPQLLIYQMSNLASGVPDRFSSSGSGTDFTLKISRVEAEDVGVYYCAQNLELPLTFGQGTKLEIK",110 µM,1.44 fold against VH5/VK2
"humanized anti-fibrin antibody variant VH5 C102G/VK2 (antibody, IgG1, V domains shown, IgG1, tested from HEK supernatant in the SPR assay; also called VH5 C102G/Vκ2; VH5-102G) VH: QVQLVQSGAEVKKPGSSVKVSCKASGYTFTSYWIHWVRQAPGQGLEWIGLIDPSDSYTNYNQKFRGRVTITRDTSTSTAYMELSSLRSEDTAVYYCASSDPTGGWGQGTTVTVSS VL: DIVMTQAAFSNPVTPGTPASISCRSSKSLLHSSGITYLSWYLQKPGQSPQLLIYQMSNLASGVPDRFSSSGSGTDFTLKISRVEAEDVGVYYCAQNLELPLTFGQGTKLEIK",39 µM,0.5 fold against VH5/VK2
